Test results reported in patent publication US20160361280A1.

Experiments:
[1] = target: hCD1d/β-2-microglobulin refolded with α-GalCer carbamate 8 (human) (UniProt P15813); assay: SPR (BIAcore); calculated from experimental koff and Kd
[2] = target: hCD1d/β-2-microglobulin refolded with ThrCer 2 (human) (UniProt P15813); assay: as above
[3] = target: hCD1d/β-2-microglobulin refolded with ThrCer thioamide 9 (human) (UniProt P15813); assay: as above
[4] = target: hCD1d/β-2-microglobulin refolded with α-GalCer thioamide 6 (human) (UniProt P15813); assay: as above
[5] = target: hCD1d/β-2-microglobulin refolded with ThrCer carbamate 11 (human) (UniProt P15813); assay: as above
[6] = target: hCD1d/β-2-microglobulin refolded with α-GalCer 1 (human) (UniProt P15813); assay: as above
[7] = target: hCD1d/β-2-microglobulin refolded with α-GalCer carbamate 8 (human) (UniProt P15813); assay: SPR (BIAcore), equilibrium binding; TCR injected over immobilised biotinylated hCD1d-lipid
[8] = target: hCD1d/β-2-microglobulin refolded with ThrCer 2 (human) (UniProt P15813); assay: as above
[9] = target: hCD1d/β-2-microglobulin refolded with ThrCer thioamide 9 (human) (UniProt P15813); assay: as above
[10] = target: hCD1d/β-2-microglobulin refolded with α-GalCer thioamide 6 (human) (UniProt P15813); assay: as above
[11] = target: hCD1d/β-2-microglobulin refolded with ThrCer carbamate 11 (human) (UniProt P15813); assay: as above
[12] = target: hCD1d/β-2-microglobulin refolded with α-GalCer 1 (human) (UniProt P15813); assay: as above
[13] = target: hCD1d/β-2-microglobulin refolded with α-GalCer carbamate 8 (human) (UniProt P15813); assay: SPR (BIAcore), kinetics; TCR injected over immobilised biotinylated hCD1d-lipid
[14] = target: hCD1d/β-2-microglobulin refolded with ThrCer 2 (human) (UniProt P15813); assay: as above
[15] = target: hCD1d/β-2-microglobulin refolded with ThrCer thioamide 9 (human) (UniProt P15813); assay: as above
[16] = target: hCD1d/β-2-microglobulin refolded with α-GalCer thioamide 6 (human) (UniProt P15813); assay: as above
[17] = target: hCD1d/β-2-microglobulin refolded with ThrCer carbamate 11 (human) (UniProt P15813); assay: as above
[18] = target: hCD1d/β-2-microglobulin refolded with α-GalCer 1 (human) (UniProt P15813); assay: as above

“soluble human iNKT cell T cell receptor (Vα24/Vβ11 heterodimer) (TCR)” was tested, and the kon [1] was 534000 M⁻¹ s⁻¹, the kon [2] was 258000 M⁻¹ s⁻¹ and the kon [3] was 520000 M⁻¹ s⁻¹. The kon [4] was 128000 M⁻¹ s⁻¹, the kon [5] was 259000 M⁻¹ s⁻¹ and the kon [6] was 258000 M⁻¹ s⁻¹. The Kd [7] was 1.72 µM, the Kd [8] was 4.57 µM and the Kd [9] was 36.1 µM. It also gave a Kd [10] of 4.2 µM, a Kd [11] of 4.6 µM and a Kd [12] of 2.19 µM. For the same substance, the koff [13] was 0.919 s⁻¹, the koff [14] was 1.18 s⁻¹ and the koff [15] was 1.88 s⁻¹. It also gave a koff [16] of 0.537 s⁻¹, a koff [17] of 1.19 s⁻¹ and a koff [18] of 0.565 s⁻¹.
